Tests used:
[1] = target: T1, recombinant human periostin (human, UniProt Q15063 22-836); assay: binding ELISA, periostin coated
T1 construct: also called HuPOSTN; POSTN
T1 sequence: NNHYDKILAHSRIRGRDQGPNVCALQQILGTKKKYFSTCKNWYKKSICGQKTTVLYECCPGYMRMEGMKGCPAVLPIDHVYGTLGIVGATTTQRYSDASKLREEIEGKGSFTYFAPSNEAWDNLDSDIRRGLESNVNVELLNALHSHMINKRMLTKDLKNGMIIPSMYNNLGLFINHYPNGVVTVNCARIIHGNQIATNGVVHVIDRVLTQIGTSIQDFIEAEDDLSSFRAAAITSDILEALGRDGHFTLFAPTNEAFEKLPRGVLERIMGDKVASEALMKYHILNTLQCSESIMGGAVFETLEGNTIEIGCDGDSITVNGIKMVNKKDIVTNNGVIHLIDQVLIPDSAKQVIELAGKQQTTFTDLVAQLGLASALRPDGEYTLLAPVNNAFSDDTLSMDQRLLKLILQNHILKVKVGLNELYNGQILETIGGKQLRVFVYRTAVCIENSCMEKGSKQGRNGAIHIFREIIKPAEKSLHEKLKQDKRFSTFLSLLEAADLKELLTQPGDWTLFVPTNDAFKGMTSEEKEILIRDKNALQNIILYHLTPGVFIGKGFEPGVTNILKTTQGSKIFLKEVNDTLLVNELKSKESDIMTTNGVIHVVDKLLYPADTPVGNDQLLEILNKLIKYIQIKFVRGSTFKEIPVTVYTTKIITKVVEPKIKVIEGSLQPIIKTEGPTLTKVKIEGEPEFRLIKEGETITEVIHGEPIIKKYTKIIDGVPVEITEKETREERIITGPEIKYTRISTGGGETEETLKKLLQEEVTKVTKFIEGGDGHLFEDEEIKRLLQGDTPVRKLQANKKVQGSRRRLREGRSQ

[2] = target: T1, recombinant human periostin; assay: BLI (Octet Red), NB0828 captured on anti-human Fc (AHC) biosensors, periostin titrated from 100 nM
Method: (§1) NB0828's binding affinity was determined across human, mouse, rat, and cyno species. NB0828 affinities were determined using the octet red system. Briefly, anti-human Fc (AHC) biosensors were used to capture NB0828, followed by association of titrating amounts of either recombinant human, mouse, rat, or cyno periostin (100 nM→0 nM; 1:2 dilutions). Recombinant human, mouse, and rat periostin was purchased commercially from R&D systems, whereas cyno periostin was made internally.

[3] = target: T2, recombinant mouse periostin (mouse, UniProt Q62009-2 24-811, limits assumed); assay: as above
T2 construct: also called MoPOSTN
T2 sequence (looked up): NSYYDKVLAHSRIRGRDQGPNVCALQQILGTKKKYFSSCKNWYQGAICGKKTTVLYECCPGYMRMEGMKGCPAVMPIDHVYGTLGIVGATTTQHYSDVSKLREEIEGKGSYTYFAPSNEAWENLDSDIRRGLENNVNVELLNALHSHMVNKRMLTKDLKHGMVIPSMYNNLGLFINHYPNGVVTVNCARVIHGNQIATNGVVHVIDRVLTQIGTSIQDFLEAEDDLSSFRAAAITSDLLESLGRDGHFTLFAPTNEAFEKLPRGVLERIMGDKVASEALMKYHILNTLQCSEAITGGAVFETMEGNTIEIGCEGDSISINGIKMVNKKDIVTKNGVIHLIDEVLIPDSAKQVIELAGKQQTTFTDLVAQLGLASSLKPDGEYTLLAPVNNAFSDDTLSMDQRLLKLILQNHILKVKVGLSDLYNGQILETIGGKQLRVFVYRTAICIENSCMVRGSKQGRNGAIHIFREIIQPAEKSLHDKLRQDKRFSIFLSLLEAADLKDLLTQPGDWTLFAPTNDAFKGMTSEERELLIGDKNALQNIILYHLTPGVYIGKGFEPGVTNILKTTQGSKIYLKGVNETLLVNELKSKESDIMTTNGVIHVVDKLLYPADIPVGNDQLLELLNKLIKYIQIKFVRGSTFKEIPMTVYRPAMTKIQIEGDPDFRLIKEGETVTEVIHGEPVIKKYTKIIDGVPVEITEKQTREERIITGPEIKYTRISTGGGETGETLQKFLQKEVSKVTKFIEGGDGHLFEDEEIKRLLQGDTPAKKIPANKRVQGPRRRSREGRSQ
Method: as §1

[4] = target: T3, recombinant rat periostin (rat, UniProt A0A8I6AHK0 24-838); assay: as above
T3 construct: also called RatPOSTN
Method: as §1

[5] = target: T4, recombinant cyno periostin (cyno, UniProt F6ZVK0 47-861 (rhesus entry)); assay: as above
T4 construct: also called CynoPOSTN
T4 sequence: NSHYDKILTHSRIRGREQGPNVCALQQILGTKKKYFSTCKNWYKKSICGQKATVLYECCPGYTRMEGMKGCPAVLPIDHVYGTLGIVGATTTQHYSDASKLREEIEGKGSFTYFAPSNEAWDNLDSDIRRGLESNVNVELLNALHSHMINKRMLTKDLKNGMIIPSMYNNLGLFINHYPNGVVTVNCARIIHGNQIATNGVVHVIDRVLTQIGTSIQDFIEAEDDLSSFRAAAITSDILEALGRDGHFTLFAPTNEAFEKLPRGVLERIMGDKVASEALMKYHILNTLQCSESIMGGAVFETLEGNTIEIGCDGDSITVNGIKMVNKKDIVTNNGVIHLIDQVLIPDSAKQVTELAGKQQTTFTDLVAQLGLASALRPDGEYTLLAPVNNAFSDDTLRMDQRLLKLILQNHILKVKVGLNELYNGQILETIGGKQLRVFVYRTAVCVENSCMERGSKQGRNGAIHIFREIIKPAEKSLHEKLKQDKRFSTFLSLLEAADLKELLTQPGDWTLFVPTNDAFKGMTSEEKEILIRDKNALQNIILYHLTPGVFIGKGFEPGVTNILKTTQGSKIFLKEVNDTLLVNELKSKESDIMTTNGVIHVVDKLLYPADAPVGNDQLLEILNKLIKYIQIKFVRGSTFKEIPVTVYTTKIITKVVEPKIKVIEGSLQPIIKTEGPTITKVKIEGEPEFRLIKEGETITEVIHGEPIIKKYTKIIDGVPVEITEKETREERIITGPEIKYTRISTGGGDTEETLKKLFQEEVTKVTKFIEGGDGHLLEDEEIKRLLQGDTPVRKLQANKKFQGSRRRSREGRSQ
Method: as §1

B1: NB0828 (antibody, V domains shown)
VH: QVQLVQSGAEVKKPGASVKVSCKASGYTFTSYGISWVRQAPGQGLEWMGWISAYNGNTNYAQKLQGRVTMTTDTSTSTAYMELRSLRSDDTAVYYCARDMLVVPFDYWGQGTLVTVSS
VL: QSVLTQSSSASGTPGQTVTVSCSGSSSDIGSNRVNWYQQLPGTAPKLLIYSNDQRPSGVPDRFSGSKSGTSASLAISGLQSADEADYYCAAWDDSLSTYVFGSGTKVTVL
[1]
  EC50: 0.12 nM
[2]
  Kd: 0.351 nM
  koff: 0.000246 s⁻¹
  kon: 702000 M⁻¹ s⁻¹
[3]
  Kd: 0.114 nM
  koff: 7.64e-05 s⁻¹
  kon: 670000 M⁻¹ s⁻¹
[4]
  Kd: 0.54 nM
  koff: 0.000393 s⁻¹
  kon: 727000 M⁻¹ s⁻¹
[5]
  Kd: 0.265 nM
  koff: 0.000211 s⁻¹
  kon: 794000 M⁻¹ s⁻¹

— US20220010003A1 (Boehringer Ingelheim, published 2022)
